Results on six molecules are retold here after PMC11480477, “STIC2 selectively binds ribosome-nascent chain complexes in the cotranslational sorting of Arabidopsis thylakoid proteins” (The EMBO Journal, 2024).

To fix the notation:
B4: His-STIC2 (mature STIC2, aa 49–182) (natural protein, A. thaliana, UniProt O82230 49-182, looked up)
chain: VNGLFGGGNKDNNSEDGQSKAGIFGNMQNMYETVKKAQMVVQVEAVRVQKELAAAEFDGYCAGELVKVTLSGNQQPIRTDITEAAMELGSEKLSQLVTEAYKDAHAKSVVAMKERMSDLAQSLGMPPGLSEGMK
notes: STIC2 of A. thaliana, mature protein aa 49–182 (transit peptide predicted with TargetP), in pET-Duet1; The N-terminal place of the tag is read from the printed name His-STIC2; also called recombinant mature His-STIC2; suppressor of tic40 protein 2; source: E. coli Rosetta2 (DE3) or BL21 (DE3), purified (HisTrap HP, native conditions); not shown: His tag, N-terminal, kept

What all share (conditions): both partners purified
Test [1] concerns the target B4. Put plainly: peptide or protein array; pepspot membranes with 15mer peptides of Alb3 (aa 155–208, 282–462) and Alb4 (aa 139–192, 266–499); His-STIC2 5 µg/ml for 3 h at room temperature, TBST washes, detection with anti-His HRP conjugate.
In a further test the target is T1, Alb4C-His R399G (UniProt Q9FYL3 334-499, R399G).
T1 construct: Alb4, C-terminal region aa 334–499, in pET29b; source: E. coli Rosetta2 (DE3) or BL21 (DE3), purified (HisTrap HP); not shown: His tag, C-terminal, kept
T1 sequence (looked up): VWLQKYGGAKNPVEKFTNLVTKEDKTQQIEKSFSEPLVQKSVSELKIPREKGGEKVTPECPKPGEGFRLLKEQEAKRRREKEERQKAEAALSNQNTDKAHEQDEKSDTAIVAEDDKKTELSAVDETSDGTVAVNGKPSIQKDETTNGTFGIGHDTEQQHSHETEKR
Put plainly: pull-down; 20 µg GST-STIC2 variants with 20 µg Alb4C-His variants in PBS, 120 µl, room temperature; glutathione sepharose; eluates by immunoblot, coelution quantified with ImageJ. In general terms: A western blot detects proteins with antibodies after separation by electrophoresis.

The target of another test is T2, Alb4C-His F400G (UniProt Q9FYL3 334-499, F400G).
T2 construct: Alb4, C-terminal region aa 334–499, in pET29b; source: E. coli Rosetta2 (DE3) or BL21 (DE3), purified (HisTrap HP); not shown: His tag, C-terminal, kept
T2 sequence (looked up): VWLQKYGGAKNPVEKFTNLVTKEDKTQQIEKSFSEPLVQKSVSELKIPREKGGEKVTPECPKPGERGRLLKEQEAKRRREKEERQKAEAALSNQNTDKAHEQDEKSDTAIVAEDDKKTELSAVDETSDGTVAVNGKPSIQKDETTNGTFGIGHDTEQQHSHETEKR
The description is as above.

For a further test, the target named is T3, Alb4C-His R410G (UniProt Q9FYL3 334-499, R410G).
T3 construct: Alb4, C-terminal region aa 334–499, in pET29b; source: E. coli Rosetta2 (DE3) or BL21 (DE3), purified (HisTrap HP); not shown: His tag, C-terminal, kept
T3 sequence (looked up): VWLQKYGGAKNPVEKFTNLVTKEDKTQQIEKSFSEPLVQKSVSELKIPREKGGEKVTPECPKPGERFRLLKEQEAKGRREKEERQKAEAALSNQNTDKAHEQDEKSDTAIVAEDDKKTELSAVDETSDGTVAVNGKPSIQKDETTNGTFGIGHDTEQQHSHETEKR
The description is as above.

The target of the next test is T4, Alb4C-His E407G (UniProt Q9FYL3 334-499, E407G).
T4 construct: Alb4, C-terminal region aa 334–499, in pET29b; source: E. coli Rosetta2 (DE3) or BL21 (DE3), purified (HisTrap HP); not shown: His tag, C-terminal, kept
T4 sequence (looked up): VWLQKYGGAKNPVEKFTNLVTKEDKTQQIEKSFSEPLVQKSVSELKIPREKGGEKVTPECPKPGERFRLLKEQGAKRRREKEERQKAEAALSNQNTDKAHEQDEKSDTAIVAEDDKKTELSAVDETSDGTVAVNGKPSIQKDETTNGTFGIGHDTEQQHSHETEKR
The description is as above.

For test [2], the target named is T5, Alb4C-His (aa 334–499) (UniProt Q9FYL3 334-499).
T5 construct: Alb4, stromal C-terminal region aa 334–499, in pET29b; also called C-terminal region of Alb4; source: E. coli Rosetta2 (DE3) or BL21 (DE3), purified (HisTrap HP); not shown: His tag, C-terminal, kept
T5 sequence (looked up): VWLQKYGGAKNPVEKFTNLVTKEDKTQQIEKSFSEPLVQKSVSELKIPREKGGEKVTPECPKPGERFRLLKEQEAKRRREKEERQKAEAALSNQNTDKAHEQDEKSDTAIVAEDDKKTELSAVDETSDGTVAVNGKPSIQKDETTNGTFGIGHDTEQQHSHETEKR
Kind of test: ITC; His-STIC2 titrated (1.5 mM into 0.15 mM Alb3C-His or Alb3CΔIII-His; 1 mM into 0.1 mM Alb4C-His or Alb4CΔIII-His); 20 mM HEPES, 150 mM NaCl, pH 8.0, 25 °C; one-site binding model; two to five independent experiments. Background: ITC needs no label: the signal is the heat of the interaction.

Test [3] deals with T5, Alb4C-His (aa 334–499). Put plainly: pull-down; 20 µg GST-STIC2 variants with 20 µg Alb4C-His variants in PBS, 120 µl, room temperature; glutathione sepharose; eluates by immunoblot, coelution quantified with ImageJ.
The target in test [4] is B4. Put plainly: ITC; His-STIC2 titrated (1.5 mM into 0.15 mM Alb3C-His or Alb3CΔIII-His; 1 mM into 0.1 mM Alb4C-His or Alb4CΔIII-His); 20 mM HEPES, 150 mM NaCl, pH 8.0, 25 °C; one-site binding model; two to five independent experiments.
For another test, the target named is T6, GST-STIC2 E131G (A. thaliana, UniProt O82230 49-182, E131G).
T6 construct: STIC2 of A. thaliana, mature protein aa 49–182, in pGEX4T3; The results speak only of E131; source: E. coli Rosetta2 (DE3) or BL21 (DE3), purified (glutathione sepharose); not shown: GST, N-terminal, kept
T6 sequence (looked up): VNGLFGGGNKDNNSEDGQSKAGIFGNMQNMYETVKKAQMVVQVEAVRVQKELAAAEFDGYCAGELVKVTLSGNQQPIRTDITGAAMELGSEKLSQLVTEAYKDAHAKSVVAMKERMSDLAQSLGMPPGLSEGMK
Put plainly: pull-down; 20 µg GST-STIC2 variants with 20 µg Alb3C-His in PBS with 160 mM NaCl, 120 µl, room temperature; glutathione sepharose; eluates by immunoblot, coelution quantified with ImageJ.

The target in a further test is T7, GST-STIC2 E112A (A. thaliana, UniProt O82230 49-182, E112A).
T7 construct: STIC2 of A. thaliana, mature protein aa 49–182, in pGEX4T3; source: E. coli Rosetta2 (DE3) or BL21 (DE3), purified (glutathione sepharose); not shown: GST, N-terminal, kept
T7 sequence (looked up): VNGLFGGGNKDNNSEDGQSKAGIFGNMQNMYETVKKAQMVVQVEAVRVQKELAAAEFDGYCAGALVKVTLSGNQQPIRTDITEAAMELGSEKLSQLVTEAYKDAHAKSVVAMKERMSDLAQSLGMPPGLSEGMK
Described as above.

For another test, the target named is T8, GST-STIC2 E112A K115A (A. thaliana, UniProt O82230 49-182, E112A | K115A).
T8 construct: STIC2 of A. thaliana, mature protein aa 49–182, in pGEX4T3; also called STIC2 E112A K115A double mutant; source: E. coli Rosetta2 (DE3) or BL21 (DE3), purified (glutathione sepharose); not shown: GST, N-terminal, kept
T8 sequence (looked up): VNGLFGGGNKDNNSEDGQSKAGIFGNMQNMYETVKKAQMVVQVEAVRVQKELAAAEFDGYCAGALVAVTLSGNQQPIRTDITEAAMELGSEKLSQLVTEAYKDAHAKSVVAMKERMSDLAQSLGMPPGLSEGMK
Described as above.

Usually Kd stands for the free concentration of one partner at which half of the binding sites on the other are occupied at equilibrium, for simple one-to-one binding. Lower therefore signals a tighter complex.

B1: Alb4 peptide aa 394–408 (15mer pepspot) (peptide, UniProt Q9FYL3 394-408, looked up)
peptide: PKPGERFRLLKEQEA
notes: largely Motif III; source: synthetic peptide, spot on a membrane (JPT Peptide Technologies)
Turning to B1, in [1], the binding result is listed as “binds”.

B2: Alb3 peptide aa 386–400 (15mer pepspot) (peptide, UniProt Q8LBP4 386-400, looked up)
peptide: GERFRQLKEQEKRSK
notes: as for B1
On to B2, for which the binding result in [1] is on record as “binds”.

B3: GST-STIC2 (natural protein, A. thaliana, UniProt O82230 49-182, looked up)
chain: VNGLFGGGNKDNNSEDGQSKAGIFGNMQNMYETVKKAQMVVQVEAVRVQKELAAAEFDGYCAGELVKVTLSGNQQPIRTDITEAAMELGSEKLSQLVTEAYKDAHAKSVVAMKERMSDLAQSLGMPPGLSEGMK
notes: STIC2 of A. thaliana, mature protein aa 49–182, in pGEX4T3; also called pGEX4T3-GST-STIC2; source: E. coli Rosetta2 (DE3) or BL21 (DE3), purified (glutathione sepharose); not shown: GST, N-terminal, kept
In the case of B3, the binding result in the test with Alb4C-His R399G, in the test with Alb4C-His F400G, in the test with Alb4C-His R410G and with Alb4C-His E407G was “binds” each time.

In the test with Alb4C-His (aa 334–499) [2], B4 registered a Kd of 17 µM.

B5: GST-STIC2 K115A (natural protein, A. thaliana, UniProt O82230 49-182, looked up)
chain: VNGLFGGGNKDNNSEDGQSKAGIFGNMQNMYETVKKAQMVVQVEAVRVQKELAAAEFDGYCAGELVAVTLSGNQQPIRTDITEAAMELGSEKLSQLVTEAYKDAHAKSVVAMKERMSDLAQSLGMPPGLSEGMK
notes: STIC2 of A. thaliana, mature protein aa 49–182, in pGEX4T3; source: E. coli Rosetta2 (DE3) or BL21 (DE3), purified (glutathione sepharose); not shown: GST, N-terminal, kept
In the case of B5, the binding result with Alb4C-His (aa 334–499) [3] is recorded as “binds”.

B6: Alb3C-His (aa 350–462) (domain or fragment, UniProt Q8LBP4 350-462, looked up)
chain: VYLRKLGGAKPNMDENASKIISAGRAKRSIAQPDDAGERFRQLKEQEKRSKKNKAVAKDTVELVEESQSESEEGSDDEEEEAREGALASSTTSKPLPEVGQRRSKRSKRKRTV
notes: Alb3, stromal C-terminal region aa 350–462, in pET29b; also called C-terminal region of Alb3; source: E. coli Rosetta2 (DE3) or BL21 (DE3), purified (HisTrap HP); not shown: His tag, C-terminal, kept
In test [4], B6 showed a Kd of 150 µM. The results for the “percent reduction of binding against GST-STIC2” value with GST-STIC2 E131G, with GST-STIC2 E112A and with GST-STIC2 E112A K115A were about 80%, about 15% and about 80%, respectively.
